Biological target: T1, Vascular endothelial growth factor receptor 2 (VEGFR-2) (human (endogenous in placenta), UniProt P35968 20-1356)
T1 construct: VEGF receptor-2 (VEGFR-2, also known as KDR), human, endogenous in placental tissue; precipitated with a monoclonal VEGFR-2 antibody (Cell Signaling Technology); Endogenous receptor in frozen placental tissue lysates; bait of the co-immunoprecipitation; also called VEGF receptor-2; KDR; source: endogenous, human placental tissue lysate
Assay: co-IP; human placental tissue lysates (8, 12 and 35 weeks of gestation; preeclamptic placentae), 500 ug protein, precleared with Protein-A Agarose, precipitated with 1 ug monoclonal VEGFR-2 antibody overnight at 4 C, washed 3 times in ice cold RIPA buffer, blotted for sFlt-1
Details: partners not purified

T1 sequence (P35968 20-1356): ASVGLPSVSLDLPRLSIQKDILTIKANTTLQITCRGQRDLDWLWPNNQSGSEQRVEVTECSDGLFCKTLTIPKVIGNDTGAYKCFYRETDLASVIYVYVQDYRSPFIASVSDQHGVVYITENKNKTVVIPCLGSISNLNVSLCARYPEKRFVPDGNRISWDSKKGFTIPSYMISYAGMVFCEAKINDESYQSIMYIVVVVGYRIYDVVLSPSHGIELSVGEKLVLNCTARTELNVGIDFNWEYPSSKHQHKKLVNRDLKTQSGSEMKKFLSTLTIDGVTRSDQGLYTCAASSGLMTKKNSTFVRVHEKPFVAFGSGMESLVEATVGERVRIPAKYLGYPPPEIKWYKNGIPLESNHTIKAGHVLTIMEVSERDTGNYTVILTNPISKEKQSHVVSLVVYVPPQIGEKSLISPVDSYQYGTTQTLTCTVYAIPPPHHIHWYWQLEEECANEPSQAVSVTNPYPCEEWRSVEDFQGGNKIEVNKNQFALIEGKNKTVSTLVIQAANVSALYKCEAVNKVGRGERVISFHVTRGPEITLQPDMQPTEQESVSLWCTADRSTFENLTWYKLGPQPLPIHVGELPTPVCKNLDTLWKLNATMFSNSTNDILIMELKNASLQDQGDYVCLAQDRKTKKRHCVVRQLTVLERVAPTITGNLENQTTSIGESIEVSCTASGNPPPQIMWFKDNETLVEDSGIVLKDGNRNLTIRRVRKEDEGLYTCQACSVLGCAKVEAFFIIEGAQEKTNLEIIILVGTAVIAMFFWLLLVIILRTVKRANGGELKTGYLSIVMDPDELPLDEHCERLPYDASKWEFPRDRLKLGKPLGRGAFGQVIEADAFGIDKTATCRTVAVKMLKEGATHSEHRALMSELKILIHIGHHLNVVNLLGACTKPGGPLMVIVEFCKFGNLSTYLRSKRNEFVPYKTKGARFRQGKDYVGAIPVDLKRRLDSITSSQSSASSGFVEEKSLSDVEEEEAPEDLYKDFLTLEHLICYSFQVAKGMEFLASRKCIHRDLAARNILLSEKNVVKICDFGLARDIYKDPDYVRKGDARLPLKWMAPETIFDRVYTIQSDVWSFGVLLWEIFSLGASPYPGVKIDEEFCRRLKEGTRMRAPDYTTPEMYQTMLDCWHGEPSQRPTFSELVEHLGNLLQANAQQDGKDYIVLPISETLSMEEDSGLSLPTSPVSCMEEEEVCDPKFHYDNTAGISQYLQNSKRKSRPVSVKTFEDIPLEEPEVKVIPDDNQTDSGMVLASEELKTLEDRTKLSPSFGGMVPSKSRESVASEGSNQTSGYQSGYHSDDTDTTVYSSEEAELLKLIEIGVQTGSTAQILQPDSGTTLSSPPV

fold co-immunoprecipitated sFlt-1 (densitometry), PE over PTC placentae: 5.98 fold
B1: soluble VEGF receptor-1 (sFlt-1), 105 kDa species (sFlt-13) (natural protein, human (endogenous in placenta), UniProt P17948-2 27-687, looked up)
chain: SKLKDPELSLKGTQHIMQAGQTLHLQCRGEAAHKWSLPEMVSKESERLSITKSACGRNGKQFCSTLTLNTAQANHTGFYSCKYLAVPTSKKKETESAIYIFISDTGRPFVEMYSEIPEIIHMTEGRELVIPCRVTSPNITVTLKKFPLDTLIPDGKRIIWDSRKGFIISNATYKEIGLLTCEATVNGHLYKTNYLTHRQTNTIIDVQISTPRPVKLLRGHTLVLNCTATTPLNTRVQMTWSYPDEKNKRASVRRRIDQSNSHANIFYSVLTIDKMQNKDKGLYTCRVRSGPSFKSVNTSVHIYDKAFITVKHRKQQVLETVAGKRSYRLSMKVKAFPSPEVVWLKDGLPATEKSARYLTRGYSLIIKDVTEEDAGNYTILLSIKQSNVFKNLTATLIVNVKPQIYEKAVSSFPDPALYPLGSRQILTCTAYGIPQPTIKWFWHPCNHNHSEARCDFCSNNEESFILDADSNMGNRIESITQRMAIIEGKNKMASTLVVADSRISGIYICIASNKVGTVGRNISFYITDVPNGFHVNLEKMPTEGEDLKLSCTVNKFLYRDVTWILLRTVNNRTMHYSISKQKMAITKEHSITLNLTIMNVSLQDSGTYACRARNVYTGEEILQKKEITIRGEHCNKKAVFSRISKFKSTRNDCTTQSNVKH
notes: sFlt-1, truncated soluble splice variant of VEGFR-1 (six extracellular IgG like domains with a unique C-terminus), human; isoform assigned by the authors from the band size; Detected by blot with an sFlt-1 antibody (AF321, R&D Systems) in VEGFR-2 immunoprecipitates; also called soluble VEGFR-1; source: endogenous, human placental tissue lysate

From publication PMC3834253, “Attenuation of VEGFR-2 Expression by sFlt-1 and Low Oxygen in Human Placenta” (PLoS ONE, 2013)
